In patent US9328334B2, “Luciferase derived from lucidina accensa” (OLYMPUS CORPORATION, priority 2011, dated 2016):
“Also recorded” adds a separate entry of the source.

What was measured:
HeLa cell = experiment: Luminescence intensity of luciferase expressed in HeLa cell, comparison with P. pyralis luciferase (Example 3); type: cell-based; settings: 2 mM D-luciferin, 25° C., 90 min after starting measurement
Experimental: Each of the wild type luciferase derived from L. accensa, the mutant luciferase derived from L. accensa (N50D and 1530R), and the luciferase derived from P. pyralis (SEQ ID NO: 33) was expressed in a HeLa cell, and the luminescence intensity was measured and compared to each other.
Further, since the pF9A vector contains the luciferase gene derived from Renilla reniformis as an internal control, it is possible to obtain the luminescence intensity from the luminescent gene inserted to the multicloning site as a ratio compared to the luminescence intensity emitted by the Renilla luciferase.
Three types of plasmids obtained in such a manner described above were each subjected to gene transfection to a HeLa cell, which has been inoculated in a 24-well plate, by a lipofection method, and 24 hours later, the cells were washed with PBS. To each well of a 24-well plate, 500 μL of 2 mM D-luciferin/CO2 Independent Medium (manufactured by Invitrogen) was added and the luminescence intensity was measured for 90 min by using a Luminescensor (manufactured by ATTO Corporation) under the condition including 25° C. and 1 sec per each well. The luminescence intensity which is obtained at the time point of 90 min after starting the measurement was taken as the luminescence intensity of the wild type luciferase, the mutant luciferase, and P. pyralis luciferase. […] Subsequently, 500 μL of 10 μM coelenterazine/CO2 Independent Medium was added to each well and the luminescence intensity was measured for 30 min by using a Luminescensor under the condition including 25° C. and 1 sec per each well. The luminescence intensity obtained at five minutes after the addition of coelenterazine was taken as luminescence intensity of the Renilla luciferase, which is an internal control. Each of the luminescence intensity from the wild type luciferase, the mutant luciferase, and P. pyralis luciferase was divided by the luminescence intensity of the Renilla luciferase, and the results are illustrated as a graph illustrating the luminescence intensity of each luciferase.

[1] = test system: E. coli JM109 (DE3) strain; experiment: Temperature dependency of luminescence intensity: E. coli colonies heat treated at 55° C., CCD image (Example 7); type: cell-based, Escherichia coli; settings: 55° C. for 1 hour, 0.5 mM D-luciferin spray
Experimental: Each of the wild type luciferase gene and two kinds of the mutant gene obtained in the Example 6 was introduced into pRSET-B vector and transformed to E. coli JM109 (DE3) strain to form a colony. Thus-obtained colony was cultured and applied on a LB agar medium to form again the colony for 24 hours. After that, it was subjected to the heat treatment at 55° C. for 1 hour and kept at room temperature for 1 hour. It was then sprayed with a liquid containing 0.5 mM D-luciferin and a photographic image thereof was taken for 1 min by using a CCD camera (trade name: DP70, manufactured by Olympus Corporation).

[2] = Measurement of light emission spectra of purified luciferase under various pH environments; type: biochemical; settings: light emission spectra at various pH
Experimental: With use of LumiFlSpectroCapture (manufactured by ATTO Corporation) as an apparatus for measurement, to a solution of 0.1 M citric acid/0.1 M Na2HPO4 buffer (pH 5.5 to 8.0) containing 1 mM of D-luciferin, 2 mM of ATP and 4 mM of MgCl2 the purified enzyme was added at a final concentration of 1 μg/mL, and after 15 seconds of addition of the enzyme luminescence spectra was measured. The measurement results were illustrated in FIG. 1.
After that, each of thus-prepared genes (SEQ ID NOs: 38 and 39) was introduced into pRSET-B vector according to the same method as the Example 2. This vector was transformed to E. coli JM109 (DE3) strain to express the mutant luciferase. Subsequently, the mutant luciferase was purified from E. coli. In addition, under various pH environments, the light emission spectrum was measured according to the same method as the Example 2 from a light emitting reaction catalyzed by the mutant luciferase.

[3] = Stability against degradation: SDS-polyacrylamide gel electrophoresis of lysate of E. coli expressing each luciferase (Example 4); settings: lysate of E. coli BL21 (DE3) CodonPlus expressing the luciferase
Experimental: Stability against degradation was determined for the wild type luciferase derived from L. accensa in comparison with a known luciferase derived from L. biplagiata.
The above three genes were introduced into an expression vector and expressed in E. coli. The expression was carried out in the same manner as the Example 2 except that BL21 (DE3) CodonPlus (manufactured by Stratagene Corporation) was used as E. coli strain and the cells were cultured appropriately.
The lysate was prepared from the E. coli expressing each gene, and then subjected to SDS-polyacrylamide gel electrophoresis. It was confirmed that, as a band with the biggest size, a single band is present near 70 kDa for all three kinds of protein. […] Meanwhile, in the luciferase derived from L. biplagiata (i.e., left and right lanes), several bands with a size smaller than 70 kDa were identified.

HeLa cells = experiment: Luminescence intensity of luciferase expressed in HeLa cells, comparison with L. biplagiata luciferase (Example 5); type: cell-based; settings: 2 mM D-luciferin, 37° C., 90 min
From the text: The luminescence intensity from the light emitting reaction using the wild type luciferase derived from L. accensa (SEQ ID NO: 1) was compared to the luminescence intensity from the light emitting reaction using the luciferase derived from L. biplagiata having the literature sequence (SEQ ID NO: 30) or the luciferase derived from L. biplagiata having the cloned sequence (SEQ ID NO: 31). Further, based on the difference between the literature sequence and the cloned sequence, the amino acid residue at position 249 of the amino acid sequence of the wild type luciferase, i.e., methionine, was changed to lysine to prepare the mutant luciferase (M249K), which was then used for the intensity measurement.
With regard to the four types of the luciferase, a nucleic acid containing a gene optimized for mammalian cell expression was given with a Kozak sequence, and then inserted between SgfI and PmeI sites within the multicloning site of pF9A CMV hRLuc neo Flexi vector (manufactured by Promega). Further, since the pF9A vector contains the luciferase gene derived from Renilla reniformis as an internal control in the vector sequence, it is possible to obtain the luminescence intensity from the luminescent gene inserted to the multicloning site as a ratio compared to the luminescence intensity emitted by the Renilla luciferase.
Four types of luciferase plasmids obtained in such a manner described above were each subjected to gene transfection to HeLa cells inoculated in a 48-well plate by a lipofection method, and 24 hours later, the cells were washed with PBS. To each well of a 48-well plate, 500 μL of 2 mM D-luciferin/CO2 Independent Medium (manufactured by Invitrogen) was added and the luminescence intensity was measured for 90 min by using a Luminescensor (manufactured by ATTO Corporation) under the condition including 37° C. and 1 sec per each well. The luminescence intensity which is obtained at the time point of 90 min after starting the measurement was taken as the luminescence intensity of each luciferase. […] Subsequently, 500 μL of 10 μM coelenterazine/CO2 Independent Medium was added to each well and the luminescence intensity was measured for 30 min by using a Luminescensor under the condition including 37° C. and 1 sec per each well. The luminescence intensity obtained at five minutes after the addition of coelenterazine was taken as luminescence intensity of the Renilla luciferase, which is an internal control. Each of the luminescence intensities from the luciferases was divided by the luminescence intensity of the Renilla luciferase, yielding the luminescence intensity of each luciferase. The measurements were carried out multiple times for each luciferase, and the luminescence intensity was obtained as a mean value.

B1: mutant luciferase (N50D and I530R): L. accensa luciferase mutant with N50D and I530R, amino acid sequence SEQ ID NO: 2 (protein, listed as Lucidina accensa)
chain: MEEDKNILRGPAPFYPLEDGTAGEQLHRAMKRYALIPGTIAFTDAHAGVDITYSEYFEMACRLAESLKRYGLGLQHRIVVCSENSLQFFMPVVGALFIGVGVAPANDIYNERELLNSMTISQPTLVFCSRKGLQKILNVQKKLPVIQKIIILDTKEDYMGFQSMYSFVDSQLPVGFNEYDYVPDSFDRDQATALIMNSSGSTGLPKGVELNHTSVCVRFSHCRDPVYGNQIIPDTAILSVIPFHHGFGMFTTLGYLICGFRVVLMYRFEEELFLRSLQDYKIQSALLVPTLFSFFAKSTLIDKYDLSNLHEIASGGAPLAKEVGEAVAKRFNLRGIRQGYGLTETTSAVIITPEGDDKPGAVGKVVPFFSAKVVDLDTGKTLGVNQRGELCLKGPMIMKGYVNNPEATNALIDKDGWLHSGDISYWDEDGHFFIVDRLKSLIKYKGYQVPPAELESILLQHPFIFDAGVAGIPDDEAGELPAAVVVLEEGKTMTEKEIMDYVAGQVTTAKRLRGGVVFVDEVPKGLTGKRDARKIREILVKVKKTKSKL
HeLa cell
  luminescence intensity (divided by luminescence intensity of Renilla luciferase internal control): 26.5

B2: mutant luciferase (F294Y, V323L, and E354V): L. accensa luciferase mutant with F294Y, V323L and E354V, amino acid sequence SEQ ID NO: 34 (protein, listed as Lucidina accensa)
chain: MEEDKNILRGPAPFYPLEDGTAGEQLHRAMKRYALIPGTIAFTDAHAGVNITYSEYFEMACRLAESLKRYGLGLQHRIVVCSENSLQFFMPVVGALFIGVGVAPANDIYNERELLNSMTISQPTLVFCSRKGLQKILNVQKKLPVIQKIIILDTKEDYMGFQSMYSFVDSQLPVGFNEYDYVPDSFDRDQATALIMNSSGSTGLPKGVELNHTSVCVRFSHCRDPVYGNQIIPDTAILSVIPFHHGFGMFTTLGYLICGFRVVLMYRFEEELFLRSLQDYKIQSALLVPTLFSYFAKSTLIDKYDLSNLHEIASGGAPLAKELGEAVAKRFNLRGIRQGYGLTETTSAVIITPVGDDKPGAVGKVVPFFSAKVVDLDTGKTLGVNQRGELCLKGPMIMKGYVNNPEATNALIDKDGWLHSGDISYWDEDGHFFIVDRLKSLIKYKGYQVPPAELESILLQHPFIFDAGVAGIPDDEAGELPAAVVVLEEGKTMTEKEIMDYVAGQVTTAKRLRGGVVFVDEVPKGLTGKIDARKIREILVKVKKTKSKL
[1]
  light emission compared to the wild type luciferase at 55° C.: stronger light emission; also recorded: higher luminescence intensity
[2]
  pH environment giving the highest luminescence intensity: 7.4 pH

B3: L. Biplagiata (literature sequence): luciferase derived from L. biplagiata, sequence disclosed in the literature (Oba et al. 2010), lysine at position 249 (protein, listed as Lucidina biplagiata)
chain: MEEDKNILRGPAAFYPLEDGTAGEQLHRAMKRYALIPGTIAFTDAHAGVNITYSEYFEMACRLAESLKRYGLGLQHRIVVCSENSLQFFMPVVGALFIGVGVAPANDIYNERELLNSMTISQPTLVFCSRKGLQKILNVQKKLPVIQKIIILDTKEDYMGFQSMYSFVDSQLPVGFNEYDYVPDSFDRDQATALIMNSSGSTGLPKGVELTHTSVCVRFSHCRDPVFGNQIIPDTAILSVIPFHHGFGKFTTLGYLICGFRVVLMYRFEEELFLRSLQDYKIQSALLVPTLFSFFAKSTLIDKYDLSNLHEIASGGAPLAKEVGEAVAKRFNLRGIRQGYGLTETTSAVIITPEGDDKPGAVGKVVPFFSAKVVDLDTGKTLGVNQRGELCLKGPMIMKGYVNNPEATNALIDKDGWLHSGDISYWDEDGHFFIVDRLKSLIKYKGYQVPPAELESILLQHPFIFDAGVAGIPDDEAGELPAAVVVLEEGKTMTEKEIMDYVAGQVTTAKRLRGGVVFVDEVPKGLTGKLDARKIREILVKAKKTKSKL
[3]
  stability against protein degradation (bands on stained SDS-PAGE gel): stained in a smear shape in the region of 70 kDa or less
HeLa cells
  luminescence intensity, mean value (divided by Renilla luciferase intensity): 0.12

B4: P. pyralis luciferase: existing luciferase derived from Photinus pyralis (SEQ ID NO: 33) (protein, listed as Photinus pyralis)
chain: MEDAKNIKKGPAPFYPLEDGTAGEQLHKAMKRYALVPGTIAFTDAHIEVDITYAEYFEMSVRLAEAMKRYGLNTNHRIVVCSENSLQFFMPVLGALFIGVAVAPANDIYNERELLNSMGISQPTVVFVSKKGLQKILNVQKKLPIIQKIIIMDSKTDYQGFQSMYTFVTSHLPPGFNEYDFVPESFDRDKTIALIMNSSGSTGLPKGVALPHRTACVRFSHARDPIFGNQIIPDTAILSVVPFHHGFGMFTTLGYLICGFRVVLMYRFEEELFLRSLQDYKIQSALLVPTLFSFFAKSTLIDKYDLSNLHEIASGGAPLSKEVGEAVAKRFHLPGIRQGYGLTETTSAILITPEGDDKPGAVGKVVPFFEAKVVDLDTGKTLGVNQRGELCVRGPMIMSGYVNNPEATNALIDKDGWLHSGDIAYWDEDEHFFIVDRLKSLIKYKGYQVAPAELESILLQHPNIFDAGVAGLPDDDAGELPAAVVVLEHGKTMTEKEIVDYVASQVTTAKKLRGGVVFVDEVPKGLTGKLDARKIREILIKAKKGGKIAV
HeLa cell
  luminescence intensity (divided by luminescence intensity of Renilla luciferase internal control): 6.6
